Test results reported in the supplement of paper PMC12042874.
± gives the uncertainty stated by the source.

test: amyloid nucleation score (Sup35N fusion, yeast selection) (log enrichment); library NNK1; higher = more nucleation; inactive = no reads after selection
How it was run: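 The nucleation score, computed with DiMSum, is the log enrichment of output over input reads, centred on the mode score of non-aggregating sequences. Sequences with under 100 input reads were dropped. Reads were generated by Illumina sequencing of plasmid inserts from psi-negative yeast with Sup35N fused to peptides of 20 random codons, induced with 100 μM copper sulfate for 24 hours and grown 7 days at 30°C on medium lacking adenine and uracil.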

Row | Substance | amyloid nucleation score
1 | WYAGFTGRFRSLFFIISIFG | -0.529 ± 1
2 | WYGVFALMIGRSIFD | -0.027 ± 0.27
3 | WYRYEPLVMTRQMSGVGPMR | 0.124 ± 0.33
4 | WYVLARGMYENTLVGSCSMV | 6.13 ± 0.088
5 | YALRVSR | -0.346 ± 0.43
6 | YAPWGGKNSRYAGSVM | 0.701 ± 0.33
7 | YARVGKRNGSRNPYFINWGR | -0.733 ± 1.3
8 | YATTD | -0.776 ± 0.58
9 | YAVRYFETVVLQGIEVIPES | 0.205 ± 0.6
10 | YAYMVLVVPRDSVLEESECR | -0.087 ± 0.78
11 | YCDAYPGRKTEILVVQLF | 5.6 ± 0.064
12 | YCGSTWASVWGPIICPRYRA | 0.208 ± 0.33
13 | YCMCCNNRVLMVYHCTQVSA | inactive
14 | YCSHMLRMYFSEDRPLAQLM | -0.399 ± 0.74
15 | YCSKRFLVKRNFLLFYNCDF | 1.03 ± 0.5
16 | YDLGMLLF | 0.812 ± 0.77
17 | YDWNNLDVLLHCLFFGDKRR | -0.021 ± 0.26
18 | YEALQ | -0.703 ± 1
19 | YEFTYLWNNKVLLGLCCYGG | 4 ± 0.13
20 | YEKSFGTYTM | -0.045 ± 0.28
21 | YEKVSDQGNLGLASIYLAGK | -0.159 ± 0.22
22 | YESCRVHVSIIYPPASGHRA | 2.9 ± 0.12
23 | YESRCGWASRNFSLSENQNS | inactive
24 | YFAPFRGTSWFTRSCN | -0.011 ± 0.79
25 | YFAVL | inactive
26 | YFCILGSNDSNRIGWPRRST | 0.101 ± 0.42

Row | Substance | amyloid nucleation score
27 | YFDLWALSVLCCFFGVNSPF | 5.69 ± 0.087
28 | YFDWLGCLLTWQRKYVQT | -0.048 ± 0.93
29 | YFLSHRCTGGLPIS | -0.028 ± 0.9
30 | YFSHTSWLYFSTPFIVVVRV | 0.25 ± 0.97
31 | YFSKICRSLFDM | 0.906 ± 1.1
32 | YFSKTISFLFSFNSCYEFIK | 1.19 ± 0.44
33 | YFSLFYCKVSGESTLYFCGH | 5.88 ± 0.066
34 | YFSVHF | 2.29 ± 0.15
35 | YFWLNTNTLCSYWRMRHWVS | 0.524 ± 0.61
36 | YGCVCGSDNTHWNYMLVNNH | 7.222 ± 0.051
37 | YGFRQGTTSDNGTFTRIVHM | -0.336 ± 0.5
38 | YGHLVYTDHVWRRFETVKG | 0.661 ± 0.84
39 | YGLSSGFLYADLEDVPALLW | 0.681 ± 0.45
40 | YGPGWTRWLENLSLYSMYEP | -0.102 ± 1.5
41 | YGPSNYTIAQSS | -0.234 ± 0.43
42 | YGRQG | 0.123 ± 0.49
43 | YGSLFED | 0.108 ± 0.77
44 | YGSLIHMIRNEGLNIGGKSA | -0.51 ± 0.4
45 | YHGIPFCMFFRVYAVR | 0.216 ± 1.4
46 | YHWVMTASVCSPGELNYRSN | 0.363 ± 0.78
47 | YIAVGV | 0.015 ± 0.62
48 | YIGECLRKLIRCAHKDCEGY | -1.49 ± 1.2
49 | YIIVFDVNWFVKFGCFPRGS | inactive
50 | YIIVLA | 1.28 ± 0.61
51 | YIIWFPFSKLVLMRYHRSWG | -0.005 ± 0.22
52 | YILLLFSVVWIKKFGDCSCA | -0.048 ± 0.35

Row | Substance | amyloid nucleation score
53 | YIMILYRKGMFILRVFSLLL | -0.293 ± 0.24
54 | YIMSGRFTNY | 2.13 ± 0.28
55 | YISKSCRWSRTASSNVCIFI | 0.022 ± 0.33
56 | YKAKGRNAVS | -0.689 ± 1.6
57 | YKIGLT | -0.227 ± 0.48
58 | YKLPAAIDRMIVVQCNRPSI | -0.246 ± 0.61
59 | YKSCCVGITPM | -0.551 ± 0.49
60 | YKSVLHSSRSGGAYGVVKSL | -0.038 ± 0.45
61 | YKWIDRMVDERQLMSSKRQW | 0.099 ± 0.66
62 | YKWLLAGGNTKCSKVRNAYW | -0.356 ± 0.39
63 | YKYINSVQIYEHV | 4.19 ± 0.13
64 | YLASFMNLAISVGLVDGLCG | -1.29 ± 1.7
65 | YLFHMKARCMLFHKLLTYSR | inactive
66 | YLFRLVTVFNVVKATLVVTV | -0.289 ± 0.92
67 | YLGSGCRFETSYLDATFPVS | 0.387 ± 1
68 | YLHSSGGYNFSVRVSKYNCE | -0.689 ± 0.61
69 | YLLSCVGIASLGFKVFL | -0.718 ± 0.7
70 | YLMFFVYCVRLRYLSWALSQ | -1.35 ± 1.9
71 | YLMMVIRKVFVPCCNG | 0.378 ± 0.21
72 | YLPIKPFIYANILWGFTVSC | -0.025 ± 1
73 | YLQGENNWRVVGQRLSTSPA | 0.03 ± 0.4
74 | YLRRSGMLAFSSSHHR | 1.15 ± 0.4
75 | YLSCLNFRLGSMFMRSL | 0.653 ± 0.93
76 | YLVPELYEMSNS | 1.38 ± 0.79
77 | YLWSSCLGGDSANWLLY | 0.714 ± 0.32
78 | YMASEG | inactive

Row | Substance | amyloid nucleation score
79 | YMGLYWLDRRMICMQLLWTL | 2.37 ± 0.4
80 | YMGYCYNTTKVCKLRQIYAG | 1.71 ± 0.54
81 | YMHSGGQGLLCIQVSYTMSF | -0.503 ± 0.83
82 | YMILLSLGVFFTPVPDYFAQ | -0.385 ± 0.68
83 | YMIWTIFNMVSIGRPQFLRL | -0.716 ± 0.56
84 | YMKLRCMK | 0.019 ± 0.6
85 | YMLGREMS | inactive
86 | YMSVWFVTVSMDCVGRNSRT | 4.19 ± 0.058
87 | YNAARLFPYVNVWGII | -0.305 ± 1.3
88 | YNISDSTSPMVASRMGRLGQ | 0.364 ± 0.45
89 | YNLYRH | 0.406 ± 0.51
90 | YNNLIPTYHHWGSFHMV | 1.32 ± 0.68
91 | YNSVKVNRFH | 1.3 ± 0.74
92 | YNTRTRILWARVVNRVINLW | 4.95 ± 0.072
93 | YNVKSVCGRAPIGVMGRKWG | 0.618 ± 0.52
94 | YNVLCYFLNRFWMGYWYLLS | 1.5 ± 0.5
95 | YNWVGIDRMGFYTFSVGLVC | -0.375 ± 0.38
96 | YPLPV | 0.376 ± 0.28
97 | YPPRAQDMTRSAQRKCQRGV | inactive
98 | YPVRFHTYVVISTFGEIGFG | 0.822 ± 0.43
99 | YQRSTWSSWNQVRYYHEFQR | 1.59 ± 0.3
100 | YQSHLAIFFRDGHRSSKITN | -0.008 ± 1.2
101 | YQWIFIHLPAVLSVGMEIRY | -0.672 ± 0.49
102 | YRCCFLKNNPAWVQFSLRLR | -0.436 ± 0.36
103 | YRFFCCVGHITSFVFLVGNV | 5.25 ± 0.054
104 | YRICVKSSVQAGRLMFKVTG | -1.61 ± 2.7

Row | Substance | amyloid nucleation score
105 | YRLRQPLPSERSLMEHSCGV | 0.761 ± 0.56
106 | YRMGLGS | -0.455 ± 0.96
107 | YRPMYMVAEQWYYK | 0.896 ± 0.49
108 | YRRWKPIGVMSSSWLICVES | 0.603 ± 0.43
109 | YRSFCFRWWISSGCAGLRGS | 0.489 ± 0.67
110 | YRSSVL | -0.514 ± 0.29
111 | YRTSWEAVQGWSFS | -1.64 ± 1.3
112 | YRYSVQVLNCAKGAENGVII | -0.152 ± 0.32
113 | YSAIRTKFFAA | 0.616 ± 1.1
114 | YSAYNRQEDLGLKIVFVLLT | 2.57 ± 0.1
115 | YSCGGSDSWGTTNSNLGFRH | -0.751 ± 0.66
116 | YSDLSVHHYFWHQFRQKCDR | 2.01 ± 0.21
117 | YSDPYAKWNDQR | 0.784 ± 0.76
118 | YSECQLSRARD | inactive
119 | YSFALSVG | 0.874 ± 0.43
120 | YSFGVSTWLI | -0.396 ± 0.74
121 | YSFRGEHSTLCLDNVVKSFQ | inactive
122 | YSGPGAQFIAMLNKLWCTAH | 1.23 ± 0.24
123 | YSIDLIPYRDYGNKTCHGIM | 2.27 ± 0.081
124 | YSISFSYHGVVCGSGSNRGV | -0.589 ± 0.63
125 | YSLAMRLVPGPPQDENHTVN | -1.94 ± 1.8
126 | YSLGVPSPRKILNVFGGTW | -0.101 ± 0.47
127 | YSLMLFESVSSGFKCSLRFA | -0.65 ± 0.42
